Data taken from patent CN111333719A.

Experiments:
抗HPV16E7蛋白单抗69A6 [1] = assay: indirect competition ELISA, peptide at 10μmol/L competes with coated HPV16E7 whole protein for 69A6
抗HPV16E7蛋白单抗69A6 [2] = assay: indirect competition ELISA, peptide at 1μmol/L competes with coated HPV16E7 whole protein for 69A6

Binder	抑制率 (抗HPV16E7蛋白单抗69A6 [1]) [%]	抑制率 (抗HPV16E7蛋白单抗69A6 [2]) [%]
GTLGIVCPICSQKP [重叠肽HPV16E7 85-98]	92	48.6
RAHYNIVTFCCKCDSTLR [重叠肽HPV16E7 49-66]	16.3	15.6
LCVQSTHVDIRTLEDLLM [重叠肽HPV16E7 67-84]	91.6	47.3
HVDIRTLEDLLMGTLGIV [重叠肽HPV16E7 73-90]	93.5	56.2
